Data on 135 substances can be found in the supplement of paper PMC12042874.

± gives the uncertainty stated by the source.

A short description of one data set: amyloid nucleation score (Sup35N fusion, yeast selection) (log enrichment); library NNK3; higher = more nucleation; inactive = no reads after selection. Summed up: (§1)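 Yeast lacking psi expressed peptides of 20 random codons fused to Sup35N, received 100 μM copper sulfate for 24 hours, and were then grown for 7 days at 30°C on medium lacking adenine and uracil. Illumina sequencing of input and output plasmid inserts provided the reads. Nucleation scores are DiMSum log enrichments of output over input, centred on the mode of non-aggregating sequences. Any sequence with under 100 input reads was excluded.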
YVNFFVKVSV: the amyloid nucleation score entry was “inactive”.
On the same count and under the same terms, for YVPIRSFVGEVLGSGDR the value was 0.157 ± 0.59; for YVQIGFILIFISNYLSCESA, 1.8 ± 0.071; for YVSSAILRNRVLCHCYFTML, “inactive”.
For YVTSNSVDRTIKCSAFILIC, the amyloid nucleation score result was “inactive”.
The same measure, in the same setting: the value for YVWIDTMGL was “inactive”; that for YWFFIIIFNNIHSADGFIVS was “inactive”; that for YWPIHSSTAETDVTVRTRSY was 1.01 ± 0.14.
On to YWSNPYSYKFYEFMIHTALQ, for which the amyloid nucleation score entry is “inactive”.
Still for that read-out and setting: for YWVRNVLNS the value was “inactive”; for YYGFYTNYFMCGV, 2.77 ± 0.062; for YYGLAVWSERNVRWMGEGEA, “inactive”.
The same measure, in the same setting: the value for YYGVDHLLNWIPFACTARLG was “inactive”; that for YYIIWRFQGIVLKYGTALTF was “inactive”.
Same read-out and setting: the value for YYLCLYLSPLLL was 1.28 ± 0.11; that for YYMLWSKCCEYSAHRN was “inactive”.
For the substance YYSWCRFTNDYSCCYRAFFA, the amyloid nucleation score result was “inactive”.
YYTFSVHSYGEFMRCLFIQH: the amyloid nucleation score result is “inactive”.
With YYTGCHSSVSC, the amyloid nucleation score entry was “inactive”.
As to YYVVGQPAASQK, the amyloid nucleation score entry was “inactive”.
Regarding YYYAFEFPFSYHERSALYYC, the amyloid nucleation score result is “inactive”.

The next data set in a line: amyloid nucleation score (Sup35N fusion, yeast selection) (log enrichment); library NNK2; higher = more nucleation; inactive = no reads after selection. A digest of the protocol:
as §1
The substance AADKAICPVGGNTGHRSLGS registered an amyloid nucleation score of 0.691 ± 0.35.
The same measure, in the same setting: for AADRFVAMKICVLCHLKQSL the value was 1.88 ± 0.25; for AALCRMFWTAISYWCEWSLG, 0.157 ± 0.55.
On the same count and under the same terms, for AANDMPMNSPIFSLGSDMPH the value was 1.01 ± 0.48.
The substance AANRPGTSC displayed an amyloid nucleation score of 0.767 ± 0.74.
The same measure, in the same setting: for AASRWTWC the value was 1.5 ± 0.16.
On to ACDVNWLMNTIHQNNCCFAH, for which the amyloid nucleation score was -0.716 ± 1.1.
Regarding ACILSVYFS, the amyloid nucleation score was determined as 2.12 ± 0.15.
Take ADCVSICVSYRRFHLAKYR: the amyloid nucleation score came to 2.73 ± 0.11.
Turning to ADHVDAYSFRDNDLSYQVYL, the amyloid nucleation score is 1.41 ± 0.46.
Substance ADIAYFRLVMLKHTIYPVHM yielded an amyloid nucleation score of 1.82 ± 0.27.
Substance ADNFICIIETYSYILVWRSS gave an amyloid nucleation score of -0.552 ± 0.78.
For the substance ADSCKVMKWDRRPLEDFNWC, the amyloid nucleation score was -0.041 ± 0.19.
On the same count and under the same terms, for ADSVLYNCVCRFSSVPQVLR the value was -0.263 ± 0.31; for AEANLNFGLMDGAMSVKRAE, -0.329 ± 0.55; for AESWVNYRGRDV, 0.472 ± 0.8.
Still for that read-out and setting: the value for AETTFNIENDKTYIIYDCAE was -0.161 ± 0.39.
The same measure, in the same setting: the value for AEWLINGISDGLDCVSFSNS was “inactive”; that for AEYRNDMAIEVSSSYCCGY was 3.43 ± 0.082.
The substance AFGNNDDLGARRYGMATPGR came in with an amyloid nucleation score of 0.746 ± 0.62.
On the same count and under the same terms, for AFLRFMKRRQLNLLKYAFCC the value was 4.01 ± 0.084; for AFNCT, -0.684 ± 0.78.
The same measure, in the same setting: for AFPLRTVISGN the value was 0.484 ± 0.8.
Regarding AFPPE, the amyloid nucleation score is -0.726 ± 1.1.
For AFPTKCNVRSMSMHRLLLLC, the amyloid nucleation score entry is “inactive”.
The substance AFRFWFHGSMLVAHLSSWYY came in with an amyloid nucleation score of 2.88 ± 0.083.
For AFSLCFRYYLPRVNASG, the amyloid nucleation score was -0.147 ± 1.1.
Take AFSMRVGDFEIHRFSVVFRR: the amyloid nucleation score was -0.247 ± 0.53.
Still for that read-out and setting: the value for AFSSLFWIWIPSNMRSQVLK was 0.124 ± 0.42; that for AFTACRYMVSPFFSLMFSTS was 0.265 ± 1.1.
As to AFVLRVNYNLNTRGYVSLFK, the amyloid nucleation score was 2.14 ± 0.14.
Same read-out and setting: for AFWLL the value was 1.81 ± 0.093.
Same read-out and setting: for AGDTLWNGGMVEWFVWRLPG the value was 0.178 ± 0.74.
AGIFQNSRRNPYRVYMMSVY displayed an amyloid nucleation score of 3.31 ± 0.06.
On the same count and under the same terms, the value for AGMGRSVWSKRFRDISRVSS was 0.511 ± 0.56.
AGSLRR gave an amyloid nucleation score of 1.51 ± 0.41.
AGVCCSVSNILWKCTSSSNG returned an amyloid nucleation score of 9.932 ± 0.023.
The same measure, in the same setting: the value for AGWRLVTQDRLSLLNQTDVF was 1.05 ± 0.36; that for AGYDATW was 0.461 ± 0.65.
Still for that read-out and setting: the value for AGYIVIALSRCCTDSRPNRV was “inactive”; that for AHSKHPGTYGQFMSEQSGEA was 0.767 ± 0.51.
The same measure, in the same setting: for AIITLYSNHKLYLWALLLDA the value was -0.47 ± 1.1; for AIKESRCDIVIRRKWSSLKT, -0.02 ± 1.1; for AILSNVEVLYTRFRIKSCKL, -0.435 ± 0.34.
For AIRADTDFDYTIEGSVDGGG, the amyloid nucleation score is -0.199 ± 0.63.
The same measure, in the same setting: for AIRRYIVKAPLLCES the value was 1.75 ± 0.47.
Same read-out and setting: the value for AIRVLCKEYSQSDRMNEWLN was “inactive”; that for AISILNCSMMLRIWPSTAAL was 0.059 ± 0.5; that for AISLYMFVRDIAKSILRQVC was 0.269 ± 0.5.
Same read-out and setting: for AISPVGYCDSTFVFSTSLCG the value was 4.13 ± 0.12; for AKFMGLCRDKGLQLC, -0.331 ± 0.55.
As for AKPRYN, the amyloid nucleation score turned out to be 0.221 ± 0.42.
Same read-out and setting: for AKVACKDGLHACESESGFIW the value was 1.54 ± 0.3; for AKVNCISIITEDILILSEMV, “inactive”.
In the case of ALCGCPCRKPSATVINLPLF, the amyloid nucleation score turned out to be 0.165 ± 0.37.
On the same count and under the same terms, the value for ALDFSRSRDKGG was 1.42 ± 0.23; that for ALERWS was 0.024 ± 0.74.
In turn, ALFIRVYMLFRRCEECSLQV came in with an amyloid nucleation score of 7.575 ± 0.055.
Still for that read-out and setting: for ALGSRSTDSGSWITNFLSSR the value was -0.213 ± 0.79.
For the substance ALGVGVDFVKVWRNRGLAGG, the amyloid nucleation score is 0.459 ± 0.51.
The same measure, in the same setting: the value for ALMEKSTSNLLFCHLDCASD was 3.24 ± 0.071; that for ALMHTNGTV was -0.406 ± 1.1; that for ALMNPHFFSWCLKMVGYGYR was “inactive”.
Same read-out and setting: for ALNYVSCWNALRKFRESVAH the value was “inactive”.
On the same count and under the same terms, the value for ALPVLIINERTRWGVTLLLP was 0.421 ± 0.39.
ALRVLFLVVWSEHDDCYCGG displayed an amyloid nucleation score of 0.665 ± 0.42.
Take ALSSFT: the amyloid nucleation score is -1.28 ± 0.78.
In turn, ALTPGYPSGARVP returned an amyloid nucleation score of 0.307 ± 0.49.
ALWFLLKQSGARYLDLAIPG displayed an amyloid nucleation score of -0.06 ± 1.1.
AMLDLRINTSRAGSHSRVVT had an amyloid nucleation score of 2.81 ± 0.069.
Same read-out and setting: the value for AMQLCSFTPFSTYNFLSYDS was -0.685 ± 0.37; that for AMSFGCSAWYTSYRDMFCRG was 3.17 ± 0.15; that for ANFQIFDLLME was -0.061 ± 0.43.
In turn, ANLLKTRRVMYRGFG came in with an amyloid nucleation score of 0.611 ± 0.38.
On the same count and under the same terms, the value for ANMCELVLLELVIELRGGLA was 3.28 ± 0.088.
The same measure, in the same setting: the value for ANMCPYAHRVTGVMFCLLPW was “inactive”; that for ANNVSGIIVCTNFDILMYGR was 7.791 ± 0.042.
On the same count and under the same terms, the value for ANSVNRSKDCTYFVFHRF was 5.436 ± 0.054.
In turn, ANWPR came in with an amyloid nucleation score of -0.391 ± 0.79.
The same measure, in the same setting: for APANVRWLNFSGLDSNGCPY the value was “inactive”; for APHGLRKHSIMVAGMLRSVG, 2.68 ± 0.14; for APSVLGAYQIHRGRVHVLSA, 0.494 ± 0.29.
On the same count and under the same terms, the value for APTCSKCCIFMQC was 5.99 ± 0.072; that for AQNYYMY was 6.88 ± 0.087; that for AQWSRIDCNTLCKAVPISLA was 5.773 ± 0.056.
On the same count and under the same terms, the value for ARFSKHHLTKVLFGKDYQAP was 0.235 ± 0.34.
In turn, ARKCDLFYTFFCTNIFSSVG came in with an amyloid nucleation score of 4.798 ± 0.039.
Still for that read-out and setting: the value for ARLVYQLATRTCCFSQ was -0.032 ± 1.1; that for ARMRFKRRKCCNAIWVRSSV was 0.398 ± 0.3; that for ARNSGWTATSSVYPLKTPAT was 1.37 ± 0.42.
Still for that read-out and setting: for ARNYGRTWHTSEESWYFGEV the value was 5.8 ± 0.081; for ARVRTMSVRFPVLSVVCYKL, 3.69 ± 0.057.
On the same count and under the same terms, for ARYAVDTSITNECSLALYTS the value was 1.23 ± 0.24; for ARYISCRKEFRYLESA, 0.069 ± 0.37; for ASAAYWASVHICPNLSKRKL, 0.328 ± 0.65.
ASAVV registered an amyloid nucleation score of 0.402 ± 0.26.
ASDPIMTVSRPIPMHPLY returned an amyloid nucleation score of -0.172 ± 0.76.
For ASDVSRVGVGRKMIFSFVRL, the amyloid nucleation score is -0.031 ± 1.
Consider ASFCNVWGDNVWRYTLLRFK, for which the amyloid nucleation score entry was “inactive”.
Still for that read-out and setting: the value for ASGCLNLVCQNVCTSRSTNV was 8.954 ± 0.067.
On the same count and under the same terms, the value for ASHMRSDSAL was “inactive”.
On the same count and under the same terms, the value for ASLGPRFTDRTVQSHVNTRC was 0.147 ± 0.41; that for ASLSAFWSLTIVRVLPDKQV was 0.722 ± 0.43; that for ASLTASAGVVFFYTPTRRYN was 3.16 ± 0.14.
Regarding ASMCIGRWIFGEYYSFNMFI, the amyloid nucleation score was 0.775 ± 0.38.
On the same count and under the same terms, for ASSMILL the value was -1.18 ± 0.64; for ASVRENFYIGLCRKCYYHNP, 1.59 ± 0.16.
Still for that read-out and setting: for ASYLCFPNNVVLSLHNHVFS the value was 4.834 ± 0.048.
ATGSYSMITLDIFQSNCSDA came in with an amyloid nucleation score of 3.51 ± 0.053.
Same read-out and setting: for ATRGHIWDCSFGADYQCIPS the value was 5.97 ± 0.063; for AVDAVGSLMKRALRLRSMFG, 1.12 ± 0.44.
On to AVFRLFASVPGFNRRPGLEQ, for which the amyloid nucleation score was determined as 0.314 ± 0.25.
On the same count and under the same terms, the value for AVGYVMLMEMEALPISMWRG was 7.027 ± 0.054.
Consider AVICVSSRIQFMWMLGGDGT, for which the amyloid nucleation score is 5.693 ± 0.045.
